Test results published in publication PMC7800377, “A molecular mechanism for LINC complex branching by structurally diverse SUN-KASH 6:6 assemblies” (eLife, 2021).

T1: GCN4-SUN2 C705A (His6-GCN4 fusion of SUN2 522–717 C705A) (human, UniProt Q9UH99 522-717, C705A)
T1 construct: SUN2, human, SUN domain, residues 522-717, C705A; The GCN4 tag is a trimerising tag (Sosa et al., 2012); not shown: His6, N-terminal, kept; GCN4, N-terminal, kept
T1 sequence (looked up): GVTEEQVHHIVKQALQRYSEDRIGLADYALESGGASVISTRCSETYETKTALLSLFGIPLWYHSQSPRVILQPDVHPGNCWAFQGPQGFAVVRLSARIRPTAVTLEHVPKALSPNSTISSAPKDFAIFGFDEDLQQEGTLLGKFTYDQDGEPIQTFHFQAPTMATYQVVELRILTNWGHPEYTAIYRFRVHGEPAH

B1: GCN4-SUN1 (His6-GCN4 fusion of the SUN domain of human SUN1, residues 616–812), wild-type (domain or fragment)
chain: GITEAQARAIVNSALKLYSQDKTGMVDFALESGGGSILSTRCSETYETKTALMSLFGIPLWYFSQSPRVVIQPDIYPGNCWAFKGSQGYLVVRLSMMIHPAAFTLEHIPKTLSPTGNISSAPKDFAVYGLENEYQEEGQLLGQFTYDQDGESLQMFQALKRPDDTAFQIVELRIFSNWGHPEYTCLYRFRVHGEPVK
B2: GCN4-SUN2 (His6-GCN4 fusion of the SUN domain of human SUN2, residues 522–717), wild-type (domain or fragment, UniProt Q9UH99 522-717, looked up)
chain: GVTEEQVHHIVKQALQRYSEDRIGLADYALESGGASVISTRCSETYETKTALLSLFGIPLWYHSQSPRVILQPDVHPGNCWAFQGPQGFAVVRLSARIRPTAVTLEHVPKALSPNSTISSAPKDFAIFGFDEDLQQEGTLLGKFTYDQDGEPIQTFHFQAPTMATYQVVELRILTNWGHPEYTCIYRFRVHGEPAH
notes: SUN2, human, SUN domain, residues 522-717; The GCN4 tag is a trimerising tag (Sosa et al., 2012); not shown: His6, N-terminal, kept; GCN4, N-terminal, kept

Legend:
[1] = molecular target: B1; experiment: SEC-MALS; co-expressed and co-purified samples at >1 mg/ml on Superdex 200 Increase 10/300 GL in 20 mM Tris pH 8.0, 150 mM KCl, 2 mM DTT; details: both partners purified
[2] = molecular target: B2; experiment: as above; details: both partners purified
[3] = molecular target: T1, GCN4-SUN2 C705A (His6-GCN4 fusion of …); experiment: as above; details: both partners purified
[4] = molecular target: the molecule itself; experiment: as above
[5] = molecular target: the molecule itself; experiment: not stated; unpublished findings (Gurusaran and Davies)

stoichiometry N [1] | Binder | stoichiometry N [4] | further results
1 binder:target ratio (6:6) | ASGGPCCSHARIPRTPYLVLSYVNGLPPV (domain or fragment, UniProt Q8N205 376-404, looked up, Nesprin-4, human, C-terminal KASH domain, residues 376-404) [MBP-KASH4 (His6-MBP fusion of the KASH domain of human Nesprin-4, residues 376–404)] |  | stoichiometry N [2]: 1 binder:target ratio (6:6)
1 binder:target ratio (6:6) | GPSPPPTWPHLQLCYLQPPPV (domain or fragment, UniProt Q8N6L0 542-562, looked up, KASH5, human, C-terminal KASH domain, residues 542-562) [MBP-KASH5 (His6-MBP fusion of the KASH domain of human KASH5, residues 542–562)] |  | 
1 binder:target ratio (6:6) | MBP-KASH1 (His6-MBP fusion of the KASH domain of human Nesprin-1, residues 8769–8797) (domain or fragment, Nesprin-1, human, C-terminal KASH domain, residues 8769-8797) not shown |  | stoichiometry N [3]: 1 binder:target ratio (6:6)
 | B1 | 3 | 
 | KASH5 (construct not told; unpublished findings) (natural protein, human, UniProt Q8N6L0 1-562, looked up, KASH5, human; Told only as 'KASH5 is dimeric (Gurusaran and Davies, unpublished findings)') MDLPEGPVGGPTAEMYLRERPEEARLGMPVSLEEQILNSTFEACDPQRTGTVAVAQVLAYLEAVTGQGPQDARLQTLANSLDPNGEGPKATVDLDTFLVVMRDWIAACQLHGGLELEEETAFQGALTSRQLPSGCPEAEEPANLESFGGEDPRPELQATADLLSSLEDLELSNRRLVGENAKLQRSMETAEEGSARLGEEILALRKQLHSTQQALQFAKAMDEELEDLKTLARSLEEQNRSLLAQARQAEKEQQHLVAEMETLQEENGKLLAERDGVKKRSQELAMEKDTLKRQLFECEHLICQRDTILSERTRDVESLAQTLEEYRVTTQELRLEISRLEEQLSQTYEGPDELPEGAQLRRVGWTELLPPSLGLEIEAIRQKQEVATADLSNPLCGVWQWEEVIHETSEETEFPSEAPAGGQRNFQGEPAHPEEGRKEPSMWLTRREEEEDAESQVTADLPVPLGAPRPGDIPENPPERPARRELQQALVPVMKKLVPVRRRAWGQLCLPPQRLRVTRHPLIPAPVLGLLLLLLLSVLLLGPSPPPTWPHLQLCYLQPPPV |  | stoichiometry N [5]: 2
 | B2 | 3 | 
